Data as given in the supplement of paper PMC10567573.

B1: CPXM2 (parent)
chain: EILGCPLPDPNNYYHRRNEMTTTD

Variants of: B1
Assay: protein stability index of a GFP-peptide fusion (GPS, HEK-293T) (PSI 1-6); higher = more stable
Settings: c terminus: a fixed tail appended
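Note: lentivirally expressed fusions sorted by FACS into six bins by GFP to DsRed ratio, PSI derived from sequencing read proportions per bin multiplied by bin number.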

Compared with EILGCPLPDPNNYYHRFNEMTTTD [R17F], EILGCPLPDPNNYYHRYNEMTTTD [R17Y] is higher in protein stability index: 2.48 for the first, 2.85 for the second.

Going from EILGCPLPDPNNYYHRCNEMTTTD [R17C] to EILGCPLPDPNNYYHRMNEMTTTD [R17M], the protein stability index rises from 2.98 to 3.8.

First: EILGCPLPDRNNYYHRRNEMTTTD [P10R]
Second: EILGCPLPDQNNYYHRRNEMTTTD [P10Q]
The protein stability index of the first is higher: 3.49 for the first, 3.4 for the second.

Going from EILGCPLPDMNNYYHRRNEMTTTD [P10M] to EILGCPLLDPNNYYHRRNEMTTTD [P8L], the protein stability index falls from 3.44 to 2.66.

First: EILGCPLIDPNNYYHRRNEMTTTD [P8I]
Second: EILGCPLCDPNNYYHRRNEMTTTD [P8C]
The protein stability index of the first is higher: 3.14 for the first, 2.4 for the second.

Going from EILGCPLVDPNNYYHRRNEMTTTD [P8V] to EILGCPLPDPNNYYHCRNEMTTTD [R16C], the protein stability index rises from 3.01 to 3.15.

First: EILGCPLPDPNNYYHSRNEMTTTD [R16S]
Second: EILGCPLPDPNNYYHWRNEMTTTD [R16W]
The protein stability index of the first is higher: 4.14 for the first, 2.76 for the second.

Going from EITGCPLPDPNNYYHRRNEMTTTD [L3T] to EIFGCPLPDPNNYYHRRNEMTTTD [L3F], the protein stability index falls from 3.99 to 3.38.

Compared with EILGCPLPDPNNYYHRRNEMTTKD [T23K], EILGCPLPDPNNYYHRRNEMTTED [T23E] is higher in protein stability index: 3.46 for the first, 4.3 for the second.

First: EILGCPLPDPNNYYHRRNEMTTND [T23N]
Second: EILGCPLPDPNNYYHRRNEMTTWD [T23W]
The protein stability index of the first is higher: 3.48 for the first, 2.48 for the second.

Compared with EILGCPLPDPNNYYHRRNEMWTTD [T21W], EILGCPLPDPNNYYHRRNEMGTTD [T21G] is higher in protein stability index: 1.65 for the first, 3.55 for the second.

Compared with EILGCPLPDPNNYYHRRNEMDTTD [T21D], EILGCPLPDPNNYYHRRNEMYTTD [T21Y] is lower in protein stability index: 4.25 for the first, 2.81 for the second.

First: EILGCPLPDPNNYNHRRNEMTTTD [Y14N]
Second: EILGCPLPDPNNYQHRRNEMTTTD [Y14Q]
The protein stability index of the first is higher: 4.17 for the first, 3.96 for the second.

Going from EILGCPLPDPNNYGHRRNEMTTTD [Y14G] to EILGCPLPDPNNYLHRRNEMTTTD [Y14L], the protein stability index falls from 4.13 to 3.68.

Compared with EILICPLPDPNNYYHRRNEMTTTD [G4I], EILWCPLPDPNNYYHRRNEMTTTD [G4W] is higher in protein stability index: 2.72 for the first, 2.77 for the second.

Compared with EILVCPLPDPNNYYHRRNEMTTTD [G4V], EILMCPLPDPNNYYHRRNEMTTTD [G4M] is lower in protein stability index: 3.41 for the first, 3.15 for the second.

Going from EILGCPLPDPNNLYHRRNEMTTTD [Y13L] to EILGCPLPDPNNHYHRRNEMTTTD [Y13H], the protein stability index rises from 3.58 to 4.18.

First: EILGCPLPDPNNMYHRRNEMTTTD [Y13M]
Second: EILGCPEPDPNNYYHRRNEMTTTD [L7E]
The protein stability index of the first is lower: 4 for the first, 4.08 for the second.

Compared with EILGCPMPDPNNYYHRRNEMTTTD [L7M], EILGCPCPDPNNYYHRRNEMTTTD [L7C] is higher in protein stability index: 3.59 for the first, 3.83 for the second.

Going from EILGCPQPDPNNYYHRRNEMTTTD [L7Q] to EILGCPLPDPNNYYHRRNEHTTTD [M20H], the protein stability index rises from 3.68 to 3.69.

Compared with EILGCPLPDPNNYYHRRNELTTTD [M20L], EILGCPLPDPNNYYHRRNERTTTD [M20R] is higher in protein stability index: 2.95 for the first, 3.57 for the second.

Compared with EILGCPLPDPNNYYHRRNEMTYTD [T22Y], EILGCPLPDPNNYYHRRNEMTVTD [T22V] is higher in protein stability index: 3.31 for the first, 3.38 for the second.

Compared with EILGCPLPDPNNYYHRRNEMTQTD [T22Q], EILGCPLPDPNNYYHRRNEMTNTD [T22N] is lower in protein stability index: 4.18 for the first, 3.47 for the second.

First: EILGCPLPDPNNYYHRRNEMTITD [T22I]
Second: AILGCPLPDPNNYYHRRNEMTTTD [E1A]
The protein stability index of the first is lower: 2.81 for the first, 3.2 for the second.

Compared with CILGCPLPDPNNYYHRRNEMTTTD [E1C], MILGCPLPDPNNYYHRRNEMTTTD [E1M] is lower in protein stability index: 2.83 for the first, 2.23 for the second.

First: NILGCPLPDPNNYYHRRNEMTTTD [E1N]
Second: EILGCPLPDPHNYYHRRNEMTTTD [N11H]
The protein stability index of the first is higher: 3.42 for the first, 3.19 for the second.

Compared with EILGCPLPDPMNYYHRRNEMTTTD [N11M], EILGCPLPDPTNYYHRRNEMTTTD [N11T] is higher in protein stability index: 3.21 for the first, 3.48 for the second.

Compared with EILGCPLPDPQNYYHRRNEMTTTD [N11Q], EILGCPLPDPDNYYHRRNEMTTTD [N11D] is lower in protein stability index: 3.73 for the first, 3.57 for the second.

Compared with EILGCPLPDPFNYYHRRNEMTTTD [N11F], EMLGCPLPDPNNYYHRRNEMTTTD [I2M] is higher in protein stability index: 2.96 for the first, 4.04 for the second.

Going from EDLGCPLPDPNNYYHRRNEMTTTD [I2D] to EKLGCPLPDPNNYYHRRNEMTTTD [I2K], the protein stability index falls from 4.86 to 4.54.

First: ERLGCPLPDPNNYYHRRNEMTTTD [I2R]
Second: EILGCPLPDPNNYYHRRNRMTTTD [E19R]
The protein stability index of the first is higher: 4.28 for the first, 3.16 for the second.

Going from EILGCPLPDPNNYYHRRNSMTTTD [E19S] to EILGCPLPDPNNYYHRRNYMTTTD [E19Y], the protein stability index falls from 3.46 to 2.6.

First: EILGCPLPNPNNYYHRRNEMTTTD [D9N]
Second: EILGCPLPQPNNYYHRRNEMTTTD [D9Q]
The protein stability index of the first is lower: 3.18 for the first, 3.35 for the second.

First: EILGCPLPCPNNYYHRRNEMTTTD [D9C]
Second: EILGCPLPEPNNYYHRRNEMTTTD [D9E]
The protein stability index of the first is higher: 3.17 for the first, 3.15 for the second.

Going from EILGCPLPYPNNYYHRRNEMTTTD [D9Y] to EILGCPLPAPNNYYHRRNEMTTTD [D9A], the protein stability index rises from 2.75 to 3.07.

First: EILGCYLPDPNNYYHRRNEMTTTD [P6Y]
Second: EILGCALPDPNNYYHRRNEMTTTD [P6A]
The protein stability index of the first is lower: 2.44 for the first, 3.16 for the second.

First: EILGCPLPDPNPYYHRRNEMTTTD [N12P]
Second: EILGCPLPDPNHYYHRRNEMTTTD [N12H]
The protein stability index of the first is higher: 3.45 for the first, 3.36 for the second.

Compared with EILGCPLPDPNVYYHRRNEMTTTD [N12V], EILGCPLPDPNNYYHRRNEMTTTG [D24G] is lower in protein stability index: 3.17 for the first, 2.76 for the second.

Going from EILGCPLPDPNNYYHRRNEMTTTH [D24H] to EILGCPLPDPNNYYHRRNEMTTTR [D24R], the protein stability index rises from 2.76 to 3.07.

Going from EILGCPLPDPNNYYHRRNEMTTTI [D24I] to EILGCPLPDPNNYYHRRREMTTTD [N18R], the protein stability index rises from 1.82 to 3.19.

First: EILGCPLPDPNNYYHRRIEMTTTD [N18I]
Second: EILGCPLPDPNNYYHRRLEMTTTD [N18L]
The protein stability index of the first is higher: 2.79 for the first, 2.51 for the second.

First: EILGCPLPDPNNYYHRRHEMTTTD [N18H]
Second: EILGCPLPDPNNYYHRRYEMTTTD [N18Y]
The protein stability index of the first is higher: 3.37 for the first, 2.67 for the second.

First: EILGNPLPDPNNYYHRRNEMTTTD [C5N]
Second: EILGHPLPDPNNYYHRRNEMTTTD [C5H]
The protein stability index of the first is lower: 3.61 for the first, 3.91 for the second.

First: EILGPPLPDPNNYYHRRNEMTTTD [C5P]
Second: EILGAPLPDPNNYYHRRNEMTTTD [C5A]
The protein stability index of the first is higher: 4.42 for the first, 3.79 for the second.

Going from EILGCPLPDPNNYYYRRNEMTTTD [H15Y] to EILGCPLPDPNNYYGRRNEMTTTD [H15G], the protein stability index rises from 3.16 to 3.88.

Going from EILGCPLPDPNNYYLRRNEMTTTD [H15L] to EILGCPLPDPNNYYARRNEMTTTD [H15A], the protein stability index rises from 3.21 to 3.71.

Going from EILGCPLPDPNNYYTRRNEMTTTD [H15T] to EILGCPLPDPNNYYERRNEMTTTD [H15E], the protein stability index falls from 3.76 to 3.62.
